{"source": "paper PMC6546705", "target": "recombinant MnSOD-WT (manganese superoxide dismutase, wild type) (UniProt P04179)", "experiment": "SEC; Superdex 200 Increase 10/300 GL, 50 mM potassium phosphate pH 7.8; size from a calibration curve of gel filtration standards", "data": [{"substance": "recombinant MnSOD-WT (manganese superoxide dismutase, wild type) (from UniProt P04179 25-222) (enzyme)", "values": [{"measurement": "stoichiometry N", "result": 4}]}]}
